Data reported in the RNAGym collection of RNA variant scans (doi:10.7554/elife.80360).

B1: CPEB3 Ribozyme (parent)
chain: GGGGGCCACAGCAGAAGCGUUCACGUCGCGGCCCCUGUCAGAUUCUGGUGAAUCUGCGAAUUCUGCUGU

Variants of: B1
Experiment: self-cleavage, relative activity (ratio to wild type); higher = more cleavage; co-transcriptional

| Variant | self-cleavage |
| --- | --- |
| GGGGGCCACAGCAGAAGCGUUCGCGACGCGGCCCCUGUCAGAUUCUGGUGAAUCUGCGAAUUCUGCUGU | 0.773 |
| GGGGGCCACAGCAGAAGCGUUCGCGUCGCGGCCCCUGUCAGAUGCUGGUGAAUCUGCGAAUUCUGCUGU | 1.02 |
| GGGGGCCACAGCAGAAGCGUUCGCGUCGCGGCCCCUGUCAGAUCCUGGUGAAUCUGCGAAUUCUGCUGU | 0.904 |
| GGGGGCCACAGCAGAAGCGUUCGCGUCGCGGCCCCUGUCAGAUACUGGUGAAUCUGCGAAUUCUGCUGU | 0.923 |
| GGGGGCCACAGCAGAAGCGUUCGCGUCGCGCCCCCUGUCAGAUUCUGGUGAAUCUGCGAAUUCUGCUGU | 0.237 |
| GGGGGCCACAGCAGAAGCGUUCGCGUCGCCGCCCCUGUCAGAUUCUGGUGAAUCUGCGAAUUCUGCUGU | 0.432 |
| GGGGGCCACAGCAGAAGCGUUCGCGUCGCUGCCCCUGUCAGAUUCUGGUGAAUCUGCGAAUUCUGCUGU | 0.229 |
| GGGGGCCACAGCAGAAGCGUUCGCGUCGCAGCCCCUGUCAGAUUCUGGUGAAUCUGCGAAUUCUGCUGU | 0.79 |
| GGGGGCCACAGCAGAAGCGUUCGCGUCGCGGCCCCUGUCAGAUUCUCGUGAAUCUGCGAAUUCUGCUGU | 0.944 |
| GGGGGCCACAGCAGAAGCGUUCGCGUCGCGGCCCCUGUCAGAUUCUAGUGAAUCUGCGAAUUCUGCUGU | 0.996 |
| GGGGGCCACAGCAGAAGCGUUCGCGUCGCGGCCCCUGUCAGAUUCUUGUGAAUCUGCGAAUUCUGCUGU | 0.991 |
| GGGGGCCACAGCAGAAGCGUUCGCGUCGCGGCCCCUGUCAGAUUCUGGUGAAUCUGCGAAUUCUGCUUU | 1 |
| GGGGGCCACAGCAGAAGCGUUCGCGUCGCGGCCCCUGUCAGAUUCUGGUGAAUCUGCGAAUUCUGCUCU | 0.971 |
| GGGGGCCACAGCAGAAGCGUUCGCGUCGCGGCCCCUGUCAGAUUCUGGUGAAUCUGCGAAUUCUGCUAU | 0.97 |
| GGGGGCCACAGCAGAAGCGUUCGCGUCGGGGCCCCUGUCAGAUUCUGGUGAAUCUGCGAAUUCUGCUGU | 0.211 |
| GGGGGCCACAGCAGAAGCGUUCGCGUCGCGGCCCCUGUCAUAUUCUGGUGAAUCUGCGAAUUCUGCUGU | 0.798 |
| GGGGGCCACAGCAGAAGCGUUCGCGUCGCGGCCCCUGUCAAAUUCUGGUGAAUCUGCGAAUUCUGCUGU | 0.676 |
| GGGGGCCACAGCAGAAGCGUUCGCGUCGCGGCCCCUGUCACAUUCUGGUGAAUCUGCGAAUUCUGCUGU | 0.581 |
| GGGGGCCACAGCAGAAGCGUUCGCGUCGCGGCCCAUGUCAGAUUCUGGUGAAUCUGCGAAUUCUGCUGU | 0.215 |
| GGGGGCCACAGCAGAAGCGUUCGCGUCGCGGCCCGUGUCAGAUUCUGGUGAAUCUGCGAAUUCUGCUGU | 0.336 |

| Variant | self-cleavage |
| --- | --- |
| GGGGGCCACAGCAGAAGCGUUCGCGUCGCGGCCCCUGUCAGAUUCUGGUCAAUCUGCGAAUUCUGCUGU | 1.01 |
| GGGGGCCACAGCAGAAGCGUUCGCGUCGCGGCCCCUGUCAGAUUCCGGUGAAUCUGCGAAUUCUGCUGU | 0.906 |
| GGGGGCCACAGCAGAAGCGUUCGCGUCGCGGCCCCUGUCAGAUUCUGGUGAAUCUUCGAAUUCUGCUGU | 0.914 |
| GGGGGCCACAGCAGAAGCGUUCGCGUCGCGGCCCCUGUCAGAUUCUGGUGAAUCUCCGAAUUCUGCUGU | 0.751 |
| GGGGGCCACAGCAGAAGCGUUCGCGUCGCGGCCCCUGUCAGAUUCUGGAGAAUCUGCGAAUUCUGCUGU | 0.957 |
| GGGGGCCACAGCAGAAGCGUUCGCGUCGCGGCCCCUGUCAGAUUCUGGCGAAUCUGCGAAUUCUGCUGU | 0.966 |
| GGGGGCCACAGCAGAAGCGUUCGCGUCGCGGCCCCUGUCAGAUUCUGGGGAAUCUGCGAAUUCUGCUGU | 1.03 |
| GGGGGCCACAGCAGAAGCGUUCGCGUCGCGGCCCCUGUCAGAUUCUGGUGAAUCCGCGAAUUCUGCUGU | 0.789 |
| GGGGGCCACAGCAGAAGCGUUCGCGUCGCGGCCCCUGUCAGAUUCUGGUGAAUCGGCGAAUUCUGCUGU | 0.752 |
| GGGGGCCACAGCAGAAGCGUUCGCGUCGCGGCCCCUGUCAGAUUCUGGUGAAUCAGCGAAUUCUGCUGU | 0.879 |
| GGGGGCCACAGCAGAAGCGUUCGCGUCGCGGCCCCUGUCAGAUUCUGGUGAAUCUGCGAAUUAUGCUGU | 0.681 |
| GGGGGCCACAGCAGAAGCGUUCGCGUCGCGGCCCCUGUCAGAUUCUGGUGAAUCUGCGAAUUUUGCUGU | 0.95 |
| GGGGGCCACAGCAGAAGCGUUCGCGUCGCGGCCCCUGUCAGAUUCUGGUGAAUCUGCGAAUUGUGCUGU | 0.521 |
| GGGGGCCACAGCAGAAGCGUUCGCGUCGCGGCCUCUGUCAGAUUCUGGUGAAUCUGCGAAUUCUGCUGU | 0.932 |
| GGGGGCCACAGCAGAAGCGUUCGCGUCGCGGCCACUGUCAGAUUCUGGUGAAUCUGCGAAUUCUGCUGU | 0.627 |
| GGGGGCCACAGCAGAAGCGUUCGCGUCGCGGCCCCUGUCAGAAUCUGGUGAAUCUGCGAAUUCUGCUGU | 0.877 |
| GGGGGCCACAGCAGAAGCGUUCGCGUCGCGGCCCCUGUCAGAGUCUGGUGAAUCUGCGAAUUCUGCUGU | 0.721 |
| GGGGGCCACAGCAGAAGCGUUCGCGUCGCGGCCCCUGUCAGACUCUGGUGAAUCUGCGAAUUCUGCUGU | 0.937 |
| GGGGGCCACAGCAGAAGCGUUCGCGUCGCGGCCCCUGUCAGAUUCUGGUGAAUCUGCGAAUCCUGCUGU | 0.667 |
